These results are taken from CN113583114A (YANG SHENG TANG CO LTD; UNIV XIAMEN, dated 2021).

The chains are these.
B1: 人源单克隆抗体6G9 (antibody, V domains shown)
VH: QVQLVQSGAEVKKLGASVKVSCKASGYSFTDYYIHWVRQAPGQGLEWMGWINPISGGTNYAQKFQGRVTMTRDTSITTVYMELSRLRSDDTAVYYCARDLPPYNWNGPLRSQRFDCWGQGTLVTVSS
VL: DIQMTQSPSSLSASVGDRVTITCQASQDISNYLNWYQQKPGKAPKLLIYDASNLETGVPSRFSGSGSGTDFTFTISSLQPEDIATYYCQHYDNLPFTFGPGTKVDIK
B2: 人源单克隆抗体3C11 (antibody, V domains shown)
VH: EVQLVESGGGLVQPGGSLRLSCAASGFTVSRNYMSWVRQAPGKGLEWVSVIYSGGSTYYADSVKGRFTISRDNSKNTLYLQMNSLRAEDTAVYYCARGLVASYRYGMDVWGQGTTVTVSS
VL: DIQMTQSPVSLSASIGDRVTITCQASQDITNYLNWYQQKPGKAPKLLIYDASNLETGVPSRFSGSGSGTDFTFTISSLQPEDIATYYCHQYDNLPVTFGGGTKVEIK
B3: 人源单克隆抗体5C6 (antibody, V domains shown)
VH: EVQLVESGGGVVQPGRSLRLSCAASGFTFRTYAMHWVRQAPGKGLEWVAVMWNDGSNKYYADSVKGRFTISRDNSKNTLYLEMNSLRAEDTAVYYCAREGVAAAGSSSDAFDIWGQGTMVTVSS
VL: DIQMTQSPSSLSASVGDRVTITCRASQSISNFLNWYQQKPGKAPKLLIYAASSLQSGVPSRFSGSGSGTDFTLTISSLQPEDFATYYCQQSYSTLYSFGQGTKLEIK

The assay addresses SARS-CoV-2Sde18 (SARS-CoV-2 S蛋白, C末端截短18个氨基酸) on VSV pseudovirus SARS-CoV-2VSVpp (SARS-CoV-2, UniProt P0DTC2 14-1255). The assay is described as follows: cell-based or functional assay.
For the molecule B1, the 假病毒感染阻断率 is 80 % (at 0.22 μg/mL) and the “半抑制浓度(IC50), 假病毒中和 (GFP阳性细胞数减少)” value came out at 0.56 ng/mL.

For B2, the 假病毒感染阻断率 is 80 % (at 0.22 μg/mL) and the “半抑制浓度(IC50), 假病毒中和 (GFP阳性细胞数减少)” value was 62.9 ng/mL.

Consider B3, for which the 假病毒感染阻断率 was 80 % (at 0.22 μg/mL) and the “半抑制浓度(IC50), 假病毒中和 (GFP阳性细胞数减少)” value was 4.06 ng/mL.
